Laboratory results published in PMC3912023.

Experiments:
[1] = target: Recombinant CorA (without the predicted signal peptide) (Methylomicrobium album BG8); test: SEC; calibrated Superdex 75 16/60 gel filtration, 20 mM Tris-HCl pH 7.5, 1 mM CaCl2; data not shown
[2] = target: CorA, endogenously expressed, purified from Methylomicrobium album BG8 (Methylomicrobium album BG8); test: SEC; calibrated Superdex 75 16/60 gel filtration, 40 mM Tris-HCl pH 8.0, 0.5 M NaCl; data not shown

Substance	stoichiometry N [1]	stoichiometry N [2]
Recombinant CorA (without the predicted signal peptide) (natural protein)	2	–
CorA, endogenously expressed, purified from Methylomicrobium album BG8 (natural protein)	–	2
